Source: IntAct's records for PubMed 29892012

B1: E3 ubiquitin-protein ligase LNX (Homo sapiens), Q8TBB1 (parent)
chain: MNQPESANDPEPLCAVCGQAHSLEENHFYSYPEEVDDDLICHICLQALLDPLDTPCGHTYCTLCLTNFLVEKDFCPMDRKPLVLQHCKKSSILVNKLLNKLLVTCPFREHCTQVLQRCDLEHHFQTSCKGASHYGLTKDRKRRSQDGCPDGCASLTATAPSPEVSAAATISLMTDEPGLDNPAYVSSAEDGQPAISPVDSGRSNRTRARPFERSTIRSRSFKKINRALSVLRRTKSGSAVANHADQGRENSENTTAPEVFPRLYHLIPDGEITSIKINRVDPSESLSIRLVGGSETPLVHIIIQHIYRDGVIARDGRLLPGDIILKVNGMDISNVPHNYAVRLLRQPCQVLWLTVMREQKFRSRNNGQAPDAYRPRDDSFHVILNKSSPEEQLGIKLVRKVDEPGVFIFNVLDGGVAYRHGQLEENDRVLAINGHDLRYGSPESAAHLIQASERRVHLVVSRQVRQRSPDIFQEAGWNSNGSWSPGPGERSNTPKPLHPTITCHEKVVNIQKDPGESLGMTVAGGASHREWDLPIYVISVEPGGVISRDGRIKTGDILLNVDGVELTEVSRSEAVALLKRTSSSIVLKALEVKEYEPQEDCSSPAALDSNHNMAPPSDWSPSWVMWLELPRCLYNCKDIVLRRNTAGSLGFCIVGGYEEYNGNKPFFIKSIVEGTPAYNDGRIRCGDILLAVNGRSTSGMIHACLARLLKELKGRITLTIVSWPGTFL
partner: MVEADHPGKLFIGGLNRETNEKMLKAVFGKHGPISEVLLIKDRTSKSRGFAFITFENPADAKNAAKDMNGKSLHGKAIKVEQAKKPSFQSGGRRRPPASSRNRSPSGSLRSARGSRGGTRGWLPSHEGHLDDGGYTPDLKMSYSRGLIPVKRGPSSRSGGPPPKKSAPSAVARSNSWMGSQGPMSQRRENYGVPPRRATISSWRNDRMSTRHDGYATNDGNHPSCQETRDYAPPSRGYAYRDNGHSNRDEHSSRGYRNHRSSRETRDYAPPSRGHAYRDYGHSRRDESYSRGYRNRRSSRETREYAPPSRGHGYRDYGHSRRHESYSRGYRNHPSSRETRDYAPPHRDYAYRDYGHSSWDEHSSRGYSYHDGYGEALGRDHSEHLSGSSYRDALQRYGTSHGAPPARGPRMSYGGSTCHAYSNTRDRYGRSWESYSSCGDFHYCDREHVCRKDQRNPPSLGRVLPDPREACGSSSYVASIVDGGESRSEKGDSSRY
B2: Coiled-coil domain-containing protein 158 (Homo sapiens), Q5M9N0 (parent)
chain: MESKAWESNNEDLLSSSGVTSNGGSSSSFFVSSIRGTIIENTSSAGTLTQVPFFPKYEVELDSPRKIIPSPGKEHFERVLEEYSHQVKDLQRRLNESNELHEKQKFYLRQSVIDLQTKLQEMQMERDAMADIRRRESQSQEDLRNQLQNTVHELEAAKCLKEDMLKDSNTQIEQLRKMMLSHEGVLQEIRSILVDFEEASGKKICEHDSMSTLHFRSLGSAISKILRELDTEISYLKGRIFPVEDQLEALKSESQNKIELLLQQHQDRIEQLISEHEVEITGLTEKASSARSQANSIQSQMEIIQEQARNQNSMYMRQLSDLESTVSQLRSELREAKRMYEDKTEELEKQLVLANSELTEARTERDQFSQESGNLDDQLQKLLADLHKREKELSLEKEQNKRLWDRDTGNSITIDHLRRELDNRNMEVQRLEALLKALKSECQGQMERQMAAIQGKNESLEKVSSLTAQLESTKEMLRKVVEELTAKKMTLESSERTISDLTTSLQEKERAIEATNAEITKLRSRVDLKLQELQHLKNEGDHLRNVQTECEALKLQMTEKDKVIEILRQQIENMTQLVGQHGRTAGAMQVEKAQLEKEINDRRMELKELKILKDKKDAKIRELEARVSDLELEKVKLVNAGSERLRAVKDIKQERDQLLNEVKTSRSELNNLSEEYEVLKRNFRNKSEEMEMTTNKLKMQLKSAQSELEQTRNTLKSMEGSDGHAMKVAMGMQKQITAKRGQIDALQSKIQFLEEAMTNANKEKHFLKEEKSKLSQELSTVATEKNKMAGELEVLRSQERRLKEKVTNMEVALDKASLQFAECQDIIQRQEQESVRLKLQHTLDIKELQGPGYTSNSSLKPRLLQPASVTRSHSNVPSSQSTASFLSHHSTKANTLKEDPTRDLKQLLQELRSVINEEPAVSLSKTEEDGRTSLGALEDRVRDCITESSLRSDMCHRSNNSLRDSTEGSKSSETLSREPVTLHAGDREDPSGCFTFTSAASPSVKNSASRSFNSSPKKSPVHSLLTSSVEGSIGSTSQYRSAKPIHSSDSVKDSQSPPIETTGKTCRKLQNRLESLQTLVEDLQLKNQAMSSMIRNQEKRIQKVKDQEKMLLK
partner: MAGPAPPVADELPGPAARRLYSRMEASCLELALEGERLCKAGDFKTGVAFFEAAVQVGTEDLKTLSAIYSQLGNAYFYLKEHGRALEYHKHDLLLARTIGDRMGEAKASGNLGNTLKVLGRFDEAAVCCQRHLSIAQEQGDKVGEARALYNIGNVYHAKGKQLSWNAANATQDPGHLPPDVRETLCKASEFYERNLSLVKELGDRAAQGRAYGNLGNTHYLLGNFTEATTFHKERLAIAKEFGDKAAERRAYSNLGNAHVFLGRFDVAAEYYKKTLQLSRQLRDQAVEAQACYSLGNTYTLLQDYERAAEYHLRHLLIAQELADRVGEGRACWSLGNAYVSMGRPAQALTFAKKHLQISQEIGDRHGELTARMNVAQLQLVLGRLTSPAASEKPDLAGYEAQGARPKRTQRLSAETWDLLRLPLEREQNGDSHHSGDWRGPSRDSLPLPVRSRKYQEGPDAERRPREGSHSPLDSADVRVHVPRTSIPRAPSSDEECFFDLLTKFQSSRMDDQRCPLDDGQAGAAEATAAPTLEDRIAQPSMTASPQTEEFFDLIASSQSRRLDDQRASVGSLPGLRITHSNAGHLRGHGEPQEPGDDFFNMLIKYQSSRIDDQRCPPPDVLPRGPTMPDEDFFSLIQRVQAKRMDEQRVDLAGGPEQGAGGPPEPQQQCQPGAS
B3: E3 ubiquitin-protein ligase LNX (Homo sapiens), Q8TBB1 (parent)
chain: B1 chain
partner: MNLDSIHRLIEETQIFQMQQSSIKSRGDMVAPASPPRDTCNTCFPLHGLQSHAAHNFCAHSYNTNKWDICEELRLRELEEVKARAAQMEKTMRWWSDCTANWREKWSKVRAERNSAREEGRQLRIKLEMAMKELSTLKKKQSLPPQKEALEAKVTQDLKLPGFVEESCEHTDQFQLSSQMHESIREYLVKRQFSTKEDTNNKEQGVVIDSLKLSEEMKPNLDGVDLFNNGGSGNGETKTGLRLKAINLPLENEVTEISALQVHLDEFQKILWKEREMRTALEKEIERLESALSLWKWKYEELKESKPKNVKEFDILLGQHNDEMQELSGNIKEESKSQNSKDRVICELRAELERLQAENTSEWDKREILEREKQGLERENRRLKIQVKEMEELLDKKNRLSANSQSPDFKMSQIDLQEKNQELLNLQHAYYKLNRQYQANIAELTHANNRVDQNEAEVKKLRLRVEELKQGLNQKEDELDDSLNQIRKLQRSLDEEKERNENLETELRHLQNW
B4: E3 ubiquitin-protein ligase LNX (Homo sapiens), Q8TBB1 (parent)
chain: B1 chain
partner: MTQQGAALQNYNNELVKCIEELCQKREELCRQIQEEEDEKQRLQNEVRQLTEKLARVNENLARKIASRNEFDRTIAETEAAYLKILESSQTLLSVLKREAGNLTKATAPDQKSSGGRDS
B5: E3 ubiquitin-protein ligase LNX (Homo sapiens), Q8TBB1 (parent)
chain: B1 chain
partner: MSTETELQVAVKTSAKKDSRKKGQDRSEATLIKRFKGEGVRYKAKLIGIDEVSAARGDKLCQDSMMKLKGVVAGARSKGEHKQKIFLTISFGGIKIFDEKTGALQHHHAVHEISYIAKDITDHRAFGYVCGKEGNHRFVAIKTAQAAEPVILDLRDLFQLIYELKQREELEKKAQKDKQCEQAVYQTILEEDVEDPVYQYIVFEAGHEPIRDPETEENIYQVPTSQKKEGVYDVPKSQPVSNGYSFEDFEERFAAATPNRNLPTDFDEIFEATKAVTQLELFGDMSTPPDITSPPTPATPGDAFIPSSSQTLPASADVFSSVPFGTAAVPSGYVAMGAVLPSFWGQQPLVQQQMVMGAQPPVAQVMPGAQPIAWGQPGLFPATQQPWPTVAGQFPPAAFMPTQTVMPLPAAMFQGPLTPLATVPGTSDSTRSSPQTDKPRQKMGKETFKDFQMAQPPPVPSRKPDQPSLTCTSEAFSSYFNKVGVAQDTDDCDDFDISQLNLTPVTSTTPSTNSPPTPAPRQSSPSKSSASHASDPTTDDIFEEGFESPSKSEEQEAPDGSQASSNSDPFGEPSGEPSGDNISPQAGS
B6: Protein Largen (Homo sapiens), Q569H4 (parent)
chain: MSAKSKGNPSSSCPAEGPPAASKTKVKEQIKIIVEDLELVLGDLKDVAKELKEVVDQIDTLTSDLQLEDEMTDSSKTDTLNSSSSGTTASSLEKIKVQANAPLIKPPAHPSAILTVLRKPNPPPPPPRLTPVKCEDPKRVVPTANPVKTNGTLLRNGGLPGGPNKIPNGDICCIPNSNLDKAPVQLLMHRPEKDRCPQAGPRERVRFNEKVQYHGYCPDCDTRYNIKNREVHLHSEPVHPPGKIPHQGPPLPPTPHLPPFPLENGGMGISHSNSFPPIRPATVPPPTAPKPQKTILRKSTTTTV
B7: E3 ubiquitin-protein ligase LNX (Homo sapiens), Q8TBB1 (parent)
chain: B1 chain
partner: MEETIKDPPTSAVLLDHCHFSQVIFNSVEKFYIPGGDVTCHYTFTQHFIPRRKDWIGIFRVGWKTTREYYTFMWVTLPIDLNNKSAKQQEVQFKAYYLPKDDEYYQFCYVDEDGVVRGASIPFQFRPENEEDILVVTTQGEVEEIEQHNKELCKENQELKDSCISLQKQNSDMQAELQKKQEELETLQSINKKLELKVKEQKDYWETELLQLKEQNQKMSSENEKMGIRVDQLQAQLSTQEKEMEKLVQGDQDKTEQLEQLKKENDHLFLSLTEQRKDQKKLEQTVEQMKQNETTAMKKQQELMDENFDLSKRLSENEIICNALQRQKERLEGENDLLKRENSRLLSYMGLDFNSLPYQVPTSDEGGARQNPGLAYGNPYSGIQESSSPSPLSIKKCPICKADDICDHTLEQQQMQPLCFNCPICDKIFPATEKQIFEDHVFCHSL
B8: E3 ubiquitin-protein ligase LNX (Homo sapiens), Q8TBB1 (parent)
chain: B1 chain
partner: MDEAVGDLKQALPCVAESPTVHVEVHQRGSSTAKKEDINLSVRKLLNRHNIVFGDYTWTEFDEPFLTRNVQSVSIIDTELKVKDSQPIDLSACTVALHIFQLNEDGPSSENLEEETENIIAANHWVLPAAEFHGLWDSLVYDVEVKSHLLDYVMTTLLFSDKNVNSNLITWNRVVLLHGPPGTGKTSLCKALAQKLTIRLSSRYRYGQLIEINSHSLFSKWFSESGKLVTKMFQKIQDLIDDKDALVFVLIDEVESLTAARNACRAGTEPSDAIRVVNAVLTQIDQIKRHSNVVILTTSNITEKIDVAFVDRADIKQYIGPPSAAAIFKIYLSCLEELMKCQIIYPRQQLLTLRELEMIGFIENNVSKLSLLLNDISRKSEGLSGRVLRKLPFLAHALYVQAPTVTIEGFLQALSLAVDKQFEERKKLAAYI
B9: E3 ubiquitin-protein ligase LNX (Homo sapiens), Q8TBB1 (parent)
chain: B1 chain
partner: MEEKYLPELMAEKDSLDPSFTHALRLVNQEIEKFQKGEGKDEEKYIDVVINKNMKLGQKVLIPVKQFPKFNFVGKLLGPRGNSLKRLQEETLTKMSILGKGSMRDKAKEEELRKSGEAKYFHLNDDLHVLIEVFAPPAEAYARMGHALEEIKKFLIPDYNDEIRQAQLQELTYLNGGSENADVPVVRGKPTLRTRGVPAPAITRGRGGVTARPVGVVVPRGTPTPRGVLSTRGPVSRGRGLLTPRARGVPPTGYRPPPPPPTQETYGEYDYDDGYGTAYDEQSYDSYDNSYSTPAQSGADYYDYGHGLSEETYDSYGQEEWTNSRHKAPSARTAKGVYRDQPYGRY

Variants of: B1
Settings: with rby1a_human RBMY1A1, P0DJD3

effect of a mutation on the interaction | Variant
disrupting interaction strength | E295K

Variants of: B2
Settings: with gpsm1_human GPSM1, Q86YR5

effect of a mutation on the interaction | Variant
with no effect | R78H

Variants of: B3
Settings: with CCDC102B

effect of a mutation on the interaction | Variant
disrupting interaction strength | E295K

Variants of: B4
Settings: with ssna1_human SSNA1, O43805

effect of a mutation on the interaction | Variant
disrupting interaction strength | E295K

Variants of: B5
Settings: with dab1_human DAB1, O75553

effect of a mutation on the interaction | Variant
disrupting interaction strength | E295K

Variants of: B6
Settings: with abi2_human ABI2, Q9NYB9
Chain of abi2_human ABI2, Q9NYB9 (Q9NYB9 whole entry): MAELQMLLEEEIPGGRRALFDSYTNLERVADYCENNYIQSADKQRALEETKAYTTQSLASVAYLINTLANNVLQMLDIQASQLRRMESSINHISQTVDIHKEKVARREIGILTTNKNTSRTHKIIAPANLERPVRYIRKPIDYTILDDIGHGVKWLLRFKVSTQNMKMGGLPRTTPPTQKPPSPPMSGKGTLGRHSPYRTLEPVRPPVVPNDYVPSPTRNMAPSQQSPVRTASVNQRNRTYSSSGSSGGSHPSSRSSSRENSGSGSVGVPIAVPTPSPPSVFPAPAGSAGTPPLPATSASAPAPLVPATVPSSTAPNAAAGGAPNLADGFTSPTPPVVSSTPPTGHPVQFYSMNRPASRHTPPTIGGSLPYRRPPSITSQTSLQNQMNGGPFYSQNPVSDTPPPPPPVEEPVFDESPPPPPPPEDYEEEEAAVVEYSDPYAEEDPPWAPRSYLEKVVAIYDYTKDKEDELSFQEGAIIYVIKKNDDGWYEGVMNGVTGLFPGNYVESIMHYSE

effect of a mutation on the interaction | Variant
with no effect | MSAKSKGNPSSSCPAEGPPAASKTKVKEQIKIIVEDLELVLGDLKDVAKELKEVVDQIDTLTSDLQLEDEMTDSSKTDTLNSSSSGTTASSLEKIKVPANAPLIKPPAHPSAILTVLRKPNPPPPPPRLTPVKCEDPKRVVPTANPVKTNGTLLRNGGLPGGPNKIPNGDICCIPNSNLDKAPVQLLMHRPEKDRCPQAGPRERVRFNEKVQYHGYCPDCDTRYNIKNREVHLHSEPVHPPGKIPHQGPPLPPTPHLPPFPLENGGMGISHSNSFPPIRPATVPPPTAPKPQKTILRKSTTTTV [Q98P]

Variants of: B7
Settings: with caco2_human CALCOCO2, Q13137

effect of a mutation on the interaction | Variant
disrupting interaction strength | E295K

Variants of: B8
Settings: with pch2_human TRIP13, Q15645

effect of a mutation on the interaction | Variant
disrupting interaction strength | E295K

Variants of: B9
Settings: with khdr3_human KHDRBS3, O75525

effect of a mutation on the interaction | Variant
disrupting interaction strength | E295K
